Experimental data taken from patent US20240317849A1.

Molecular target: recombinant human NPR3 protein, extracellular domain amino acids Gly27-Ser482 fused to the Fc portion of mouse IgG2a at the NPR3 C-terminus (human; mouse) (UniProt P17342)
Experiment: ELISA-based blocking assay on coated hNPR3-mFc, competitor biotin-hANP 200 pM; categorized as a non-blocker

Sequence of UniProt P17342 (P17342 27-482 limits assumed): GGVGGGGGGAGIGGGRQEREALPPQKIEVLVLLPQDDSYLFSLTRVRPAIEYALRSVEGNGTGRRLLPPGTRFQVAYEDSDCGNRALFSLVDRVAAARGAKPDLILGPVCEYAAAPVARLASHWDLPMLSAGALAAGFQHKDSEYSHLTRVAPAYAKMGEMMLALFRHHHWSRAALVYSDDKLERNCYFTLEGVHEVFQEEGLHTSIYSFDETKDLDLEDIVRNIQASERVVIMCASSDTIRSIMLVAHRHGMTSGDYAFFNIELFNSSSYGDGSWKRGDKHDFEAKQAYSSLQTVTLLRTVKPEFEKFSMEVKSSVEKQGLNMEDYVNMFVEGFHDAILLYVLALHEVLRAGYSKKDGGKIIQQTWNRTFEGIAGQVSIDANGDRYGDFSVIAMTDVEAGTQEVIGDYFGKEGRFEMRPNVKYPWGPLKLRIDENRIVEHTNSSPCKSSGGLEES

- percent blockade: 32%
Substance: non-binding human IgG1 isotype control antibody (ELISA blocking assay)
